In paper PMC12627605 (Nature Communications, 2025):

Legend:
[1] = molecular target: T1, GST-PP2C30 (rice, UniProt Q84JI0 1-404); assay: pull-down
T1 sequence: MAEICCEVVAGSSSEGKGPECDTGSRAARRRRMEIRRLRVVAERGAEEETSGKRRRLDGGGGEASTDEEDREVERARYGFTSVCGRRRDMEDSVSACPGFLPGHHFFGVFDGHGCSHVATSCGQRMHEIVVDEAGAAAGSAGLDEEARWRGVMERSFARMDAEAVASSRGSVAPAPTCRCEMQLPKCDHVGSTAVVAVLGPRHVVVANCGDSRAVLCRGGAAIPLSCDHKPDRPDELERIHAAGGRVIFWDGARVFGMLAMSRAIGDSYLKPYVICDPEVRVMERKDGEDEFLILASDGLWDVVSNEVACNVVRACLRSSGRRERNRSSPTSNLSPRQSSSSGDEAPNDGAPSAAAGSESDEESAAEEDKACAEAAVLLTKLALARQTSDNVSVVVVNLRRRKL

[2] = molecular target: T2, GST-PP2C51 (rice, UniProt Q65XK7 1-381); assay: pull-down
T2 sequence: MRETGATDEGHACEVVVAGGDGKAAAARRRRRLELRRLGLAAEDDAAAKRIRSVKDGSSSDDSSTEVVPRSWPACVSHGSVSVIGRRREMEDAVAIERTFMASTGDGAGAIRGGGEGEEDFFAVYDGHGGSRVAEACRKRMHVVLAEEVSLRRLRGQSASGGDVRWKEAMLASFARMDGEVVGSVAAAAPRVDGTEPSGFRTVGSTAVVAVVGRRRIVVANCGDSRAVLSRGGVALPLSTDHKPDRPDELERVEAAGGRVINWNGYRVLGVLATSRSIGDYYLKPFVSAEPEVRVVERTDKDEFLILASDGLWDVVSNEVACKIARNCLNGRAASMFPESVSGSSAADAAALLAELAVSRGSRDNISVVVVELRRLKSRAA

binding result [1]: binds
binding result [2]: binds
B1: SAPK2-His (natural protein)
chain: MERYEVIKDIGSGNFGVAKLVRDVRTKELFAVKFIERGQKIDENVQREIMNHRSLRHPNIVRFKEVVLTPTHLAIVMEYAAGGELFERICSAGRFSEDEARFFFQQLISGVSYCHSMQICHRDLKLENTLLDGSIAPRLKICDFGYSKSSLLHSQPKSTVGTPAYIAPEVLARKEYDGKVADVWSCGVTLYVMLVGAYPFEDPDEPRNFRKTITRILSVQYMVPDYVRVSMECRHLLSRIFVANPEQRITIPEIKNHPWFLKNLPIEMTDEYQMSVQMNDINTPSQGLEEIMAIIQEARKPGDGSKFSGQIPGLGSMELDDVDTDDIDVEDSGDFVCAL
